Assay results from the supplement of paper PMC9170038.

Test system: K4 kissing-loop RNA reporter
Experiment: apparent KD of K4 kissing-loop reporter; higher = weaker reporter binding
Settings: Eterna round: R107
Experimental: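 RNA-MaP round R107: designed RNA switches with theophylline, tryptophan, arginine or FMN aptamers are transcribed on-chip within common flanks. They are titrated with a labelled K4 kissing-loop RNA reporter in RNA-MaP buffer (100 mM Tris pH 7.5, 80 mM KCl, 4 mM MgCl2), without ligand or with the indicated ligand. Median apparent KD per design.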

[1] = input ligand: theophylline 20 uM
[2] = input ligand: tryptophan 2.4 mM
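Also: bound reporter read as fluorescence of individual clusters on recovered sequencing chips by microscopy, with normalized cluster intensities fitted with a binding model.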

Row | Sequence | apparent KD of K4 kissing-loop reporter (input ligand: FMN 200 uM) | apparent KD of K4 kissing-loop reporter (input ligand: arginine 13.2 mM) | apparent KD of K4 kissing-loop reporter (input ligand: none) | apparent KD of K4 kissing-loop reporter [1] | apparent KD of K4 kissing-loop reporter [2]
1 | UAAGAUAUAAGGGAUACCAGCCAUAAGGAAAGUGUGAUGAGUGAUGUUCUGACAAGCCAAGGCCCUUGGCAGCUUUAAUAGCAUC [Theophylline B Same State; Euphoria Solution] | 303 nM | 198 nM | 471 nM | 263 nM | 235 nM
2 | UAAGCUCUGACGGCCGCCACUGCACGUGAAUCAGUGGUGGCUAACAUGAGUGAUGUUCAUGUAAGCAGGACCGGGUCAGAGCUAA [KL-XTryp-B14 #analogue] | 112 nM | 89.7 nM | 93.4 nM | 93.6 nM | 109 nM
3 | UAAUAAUAAUGAUAAUAAUAAAGUGGUGGACGAGGACCGGUACGGCCGCCACUCGAAAAUGCAGUGAUGUUGUAAUACAAAUAAU [Exclusion - Tryptophan A (Freestyle 1)] | 110 nM | 203 nM | 137 nM | 200 nM | 86.6 nM
4 | UAAUAUAAUCUGUCGUUUACAAUAUUUAGUCAGGAUAUCGUAUAUUCGAGAAGGGACACUAUCUAGUGAUGUUAGAUAUUUCUUU [JR_ExcFMNA_Sub014] | 47.9 nM | 78.1 nM | 55.9 nM | 67 nM | 51.9 nM
5 | UAAUAUACGAGUGAUGUUCGUUAUUUAUCAGAGGAUAUGCUUAAAUGCAGAAGGCUGUUUUUCUAAUUGAUAUUAAAUUUUUUUA [JR_Nu_ExcFMNA_Sub028] | 77.2 nM | 90.1 nM | 74 nM | 89.7 nM | 63.3 nM
6 | UAAUCCUAGUGAUAAUAAUCAAGUGGUGGACGAGGACCGGUACGGCCGCCACUCGAAAAUGCAGUGAUGUUGUAAUCCGGAUAAU [Exclusion - Tryptophan A (Freestyle 4)] | 627 nM | 701 nM | 878 nM | 771 nM | 581 nM
7 | UAAUCCUAGUGAUCCUUAUCAAGUGGUGGGCGAGGACCGGUACGGCCGCCACUCGAAUAUGCAGUGAUGUUGUAAUCCGGAUAAU [Exclusion - Tryptophan A (Freestyle 9)] | 568 nM | 741 nM | 919 nM | 750 nM | 440 nM
8 | UAAUUGCAGUGAUGUUGCAAAUGUCCUGACUAGGAUAUCAGGAAACUGAGAAGGAGUCCCUUCUAUUGCAACAAGAAGGAGGAUA [KL-SSFMN-A14] | 312 nM | 300 nM | 347 nM | 338 nM | 287 nM
9 | UAAUUUAUGUCUUUAAUAUAAUAAUCAGAUACCAGUGAUUAAUGACACCCUUGGCAGCUGUAUAGAGUGAUGUUCUUAUGCUUAA [JR_ExcTheophyA_Sub010] | 245 nM | 316 nM | 288 nM | 364 nM | 179 nM
10 | UACCCGUGCUACUCCAUCCAUGCCACACCGCGAGGACCGGUACGGCCGCCACUCGUCGGAAAGUGAUGUUUUCAAACAAAGUUGC | 151 nM | 93.4 nM | 142 nM | 292 nM | 76.9 nM
11 | UACCUGCUGUCAGGAUAUGAGUGCAGUGAUGUUGCACUCAACGUAACCAUCUUGAAAUACAAACACUCAGAAGGGACGCACGAAG [Isattema] | 183 nM | 95.9 nM | 140 nM | 167 nM | 191 nM
12 | UACGCUGCCUGAGGAUAUAGAAACGAGUGAUGUUCGUGGAUAAGAGCCAGUGAUGUUGGGUUAUUUCUAGAAGGCAGGUAAAGUA [Exclusion FMN B GF6] | 106 nM | 89.1 nM | 102 nM | 95.8 nM | 100 nM
13 | UACUAUAGUGAUGUUAUAGAUAAAACAGAUACCAGUGUUACAUAACACCCUUGGCAGCUGAAAAGGGAAAGUAUAAAUGUGUAUU [AstrosSSTHe-A#1newdesignED] | 156 nM | 127 nM | 133 nM | 125 nM | 129 nM
14 | UACUAUAUUCUGUCGUUUUUAUUAGUUUGUCAGGAUAUCGUUUAUUCGAGAAGGGACACUGUCUAGUGAUGUUAGACAUUUCUUU [#04 K4 FMN A Exclusion] | 68.3 nM | 90.7 nM | 88.5 nM | 87 nM | 75.5 nM
15 | UAGAGGAGACUCUAAUUCCUUAAGUCCGAAGGAGCGACCCAAUGGUCAGGUAGGUCGCGGACAAUCCUAGUGAUGUUAGGAUCUG [Arg A SS t5a] | 141 nM | 136 nM | 160 nM | 170 nM | 129 nM
16 | UAGAUGUUGUAAGAUAUUGAUAGUCGGGAAGGAGCGCUCACAAUAGCAGGUAGGUCGCCCGACAGUGUUAGGAGUGAUGUUCCUU [7.)] | 92.9 nM | 119 nM | 97.9 nM | 121 nM | 83.5 nM
17 | UAGCGGGCGAUUCGACGUGCGUCCAGUCAUCGAGGACCGGUACGGCCGCCACUCGCCGGAGUGAUGUUCCGGUACGUCAUAUAAU [theeternabot_sameState_KL_Trp_A_35] | 406 nM | 358 nM | 398 nM | 422 nM | 197 nM
18 | UAGCGGUGGAGGCCACCGCUAUUCUGAGAAGGAGCGCAGAUGACUGCAGGUAGGUCGCUUAGAGCUUGCAGUGAUGUUGCAAGUU [Araatlaqu] | 191 nM | 144 nM | 191 nM | 223 nM | 177 nM
19 | UAGUCAUACAGAGGAUAUCGUAUGAGUGAUGUUCAAGUGCGUACAUCAACUUGAUGUACAGAUAGACGAGAAGGCUGUAUGACUA [FMB B SS t6] | 303 nM | 382 nM | 487 nM | 449 nM | 492 nM
20 | UAGUCCUAGUGAUGGUCAUCACGUGGCGGGCGAGGACCGGUACGGCCGCCACUCGACUUUGCAGUGAUGUUGCAAACCGGACAAU [Exclusion - Tryptophan A (Freestyle 20)] | 144 nM | 134 nM | 132 nM | 136 nM | 191 nM
21 | UAGUCCUAGUGAUGGUUAUCACGUGGUGGGCGAGGACCGGUACGGCCGCCACUCGACUUUGCAGUGAUGUUGCAAACCGGACAAU [Exclusion - Tryptophan A (Freestyle 18)] | 228 nM | 278 nM | 237 nM | 287 nM | 237 nM
22 | UAGUGAAUAGAAGGAUAUUGAUAUGAAAGAUGCAGUGAUGUUGCCCGUAGCAGUCAGUAAUACGUGCAAGAAGGUCUGUGCGCGA [theeternabot_exclusion_KL_FMN_B_3] | 65.2 nM | 95.4 nM | 69.2 nM | 127 nM | 62.4 nM

Row | Sequence | apparent KD of K4 kissing-loop reporter (input ligand: FMN 200 uM) | apparent KD of K4 kissing-loop reporter (input ligand: arginine 13.2 mM) | apparent KD of K4 kissing-loop reporter (input ligand: none) | apparent KD of K4 kissing-loop reporter [1] | apparent KD of K4 kissing-loop reporter [2]
23 | UAGUGAUGCUAUGUUAGGUUUUUUAGGGAAGGAGCGCCAAAGAAGGCAGGUAGGUCGCCCUAUAUUCCCAGUGAUGUUGGGUAUU [Skye_Ex_AA] | 64.8 nM | 50.6 nM | 74.9 nM | 93.6 nM | 65.5 nM
24 | UAGUGUCGCGCAGGAUAUACUGAUUGGAGUGAUGUUCCAAACAUGAACGUGAGACUUUUACAAGAAGUAGAAGGGCGUGAGACAU [Exclusion FMN B GF 21] | 276 nM | 320 nM | 405 nM | 393 nM | 404 nM
25 | UAUAAUUCGGCGGCCGCCACUGACCAUAGCCUUCGAUGGCCAGUGAUGUUGGCCUCUGGCUCUAACAGGACCGGGCCGAAUUGCG [Aririmaus] | 228 nM | 179 nM | 260 nM | 277 nM | 135 nM
26 | UAUACUAGACAAGAGAGAAUUCUCUCAAGAGAGGAUAUCCGAAUUCGGAGAAGGCUCUCUCAGUGAUGUUGGGUAUAGUCUAGAA [AK7 SS FMN A] | 260 nM | 222 nM | 323 nM | 389 nM | 299 nM
27 | UAUAUACAUUUAUUAAUUAAAGGUUCAGAAGGAGCGUGAAUUAACACAGGUAGGUCGCUGAGCGAGUGAUGUUCGCUAUAUGGUA [JR_ExcArginiA_Sub005] | 66.3 nM | 72.6 nM | 70.5 nM | 87.1 nM | 55.7 nM
28 | UAUCAGAUUACUGAUACCAGUCUAAAGACAGUGAUGUUGUCUGAUCGACCACGAUCAAAGGACCCUUGGCAGCAGUGUACUAUUC [#29 K4 Theophylline B Same State] | 197 nM | 203 nM | 192 nM | 188 nM | 199 nM
29 | UAUCUUUGCUGAAGGAGCGAGCAUGUUGGAGUGAUGUUCCGAGCGAGUGAUGUUCGCAUAGCUCAGGUAGGUCGCAGUGGGAGGA [Same State Arginie B GF 16] | 129 nM | 111 nM | 147 nM | 164 nM | 135 nM
30 | UAUGGUCCAUCAAGAGUAGUGAUGUUAUAACGAGGACCGGUACGGCCGCCACUCGAGGCCGUAAUACUCGAUCGGAUGCUGAGUG [theeternabot_exclusion_KL_Trp_A_28] | 815 nM | 819 nM | 1180 nM | 794 nM | 816 nM
31 | UAUGUACGCGGGUAACGGUACAUCGAGGAAGGAGCGUGCGCAGGCACAGGUAGGUCGCCUCAGCGCACGAGUGAUGUUCGUGGGC [Rere] | 221 nM | 243 nM | 271 nM | 298 nM | 280 nM
32 | UAUUAAUAAUUAUUCUAGUGAUGUUAGAUACGAGGACCGGUACGGCCGCCACUCGCUUAUUGGUUUAUAAAUUUUAUAUUAUUUA [JR_SSTryptoA_Sub017] | 185 nM | 207 nM | 186 nM | 208 nM | 164 nM
33 | UAUUAAUAUUUUUCAGUGAUGUUAAUUGAUACCAGCCCGAAACCGGGCCCUUGGCAGCGAGUGAUGUUGGUUGUCAGCAUAAAUA [KL-XTheo-A13] | 860 nM | 596 nM | 836 nM | 676 nM | 667 nM
34 | UAUUUAAUUUUUAAUUUUUAAAUUGCUGAUACCAGAGCCAAUUGGCUCCCUUGGCAGCGGAUCGAGUGAUGUUCGUAUAAUUUAA [AK1 SS Theophylline A] | 30.5 nM | 66.4 nM | 35 nM | 62.2 nM | 33.6 nM
35 | UAUUUGAUGUCAGGAUAUCGUAUACGAGUGAUGUUCGUAUUUCUACUAUAGAUUAUUUAAAUUUUUCGAGAAGGGACAACAUUUA [#04 K4 FMN B Same State] | 151 nM | 93.3 nM | 115 nM | 140 nM | 122 nM
36 | UCACGUGCCAGUGAUGUUGGCGUACGUGAUACCAGAACAAUAAAGUUCCCUUGGCAGCACAAAUAUGCCAAGUUAGAUGUAUGAU [Exclusion Theophylline A GF 3] | 121 nM | 118 nM | 123 nM | 119 nM | 113 nM
37 | UCAUAUACCAGAAGGAGCGUGCAGGACGAAUUAAUCAUCGACCUUAGUGAUGUUAAGGACGCACAGGUAGGUCGCUGGUAUAUGA [Arg B SS t4] | 444 nM | 431 nM | 479 nM | 484 nM | 439 nM
38 | UCCAAUAUUUAUUGAUCCGCCUCGCAUCAACGAGGACCGGUACGGCCGCCACUCGUGCCUAGGUAGUGAUGUUACUUAGUUUACU [theeternabot_sameState_KL_Trp_A_32] | 93.2 nM | 162 nM | 114 nM | 188 nM | 196 nM
39 | UCCUAGGCUCGAAAGAGCCUAGGAUUAUCUCAGGAUAUCCGGAAACGGAGAAGGGAGAAACUAGUGAUGUUAGGGAUUCCCUAUU | 574 nM | 184 nM | 213 nM | 259 nM | 137 nM
40 | UCCUAGGCUCGAAAGAGCCUAGGUAAGACUCAGGAUAUCUGGAAACAGAGAAGGGAGCUACUAGUGAUGUUAGGAAUUCCCAUUU | 116 nM | 94.7 nM | 89 nM | 76.2 nM | 85.1 nM
41 | UCCUCGAAUCGACCUCGAAAGAGGAUGGAUACCAGUCUUGAUAAAGACCCUUGGCAGCCAGUGAUGUUGGAACGAGGUAAAUAAA [#SwitchBubble 19 #K4Late] | 531 nM | 365 nM | 571 nM | 535 nM | 359 nM
42 | UCCUGCAAUCGCCCACGAAAGUGGAUUGAUACCAGAGUCGAAAGACUCCCUUGGCAGCGAGUGAUGUUCGAAGCAGGUAAAUAAA | 326 nM | 503 nM | 562 nM | 540 nM | 459 nM
43 | UCCUUAUCGCGGUCAUAAAGCCUAUAAAACAAGGAUAUCUCAUCAGAGAGAAGGUGUGAGUGAUGUUCAAAGGCCACCACGGGUU [theeternabot_sameState_KL_FMN_A_47] | 654 nM | 724 nM | 840 nM | 453 nM | 818 nM
